Six sequences from the supplement of paper PMC5998384 can be followed below.

Series [1] deals with HeLa Kyoto. As to the kind of experiment: thermal stability score vs G1/S (z-score of summed log2 fold changes over temperatures); higher = more thermally stable than in G1/S.
The test system of series [2] is HeLa Kyoto. As to the kind of experiment: melting temperature (median over replicates), in situ; higher = more thermally stable.
In series [3] the test system is HeLa Kyoto. As to the kind of experiment: solubility in G1/S (NP-40 vs SDS abundance) (log2 ratio); higher = more soluble. The conditions noted are these: cell cycle stage: G1/S.
Series [4] relates to HeLa Kyoto. As to the kind of experiment: solubility change mitosis vs G1/S (difference of NP-40 vs SDS log2 ratios) (log2 ratio difference); higher = more soluble in mitosis.
[5] abbreviates: cell cycle stage: early G1 (4.5 h after nocodazole release).
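Wherever melting temperature (median over replicates), in situ is given: HeLa Kyoto cells synchronized by double thymidine or nocodazole block, proteins quantified by TMT10plex mass spectrometry, three independent biological replicates.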
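Wherever solubility change mitosis vs G1/S (difference of NP-40 vs SDS log2 ratios) is given: synchronized HeLa Kyoto cells (double thymidine block for G1/S, nocodazole release for mitosis), protein amounts in NP-40 versus SDS lysates quantified by mass spectrometry, three biological replicates.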
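Wherever solubility in G1/S (NP-40 vs SDS abundance) is given: HeLa Kyoto cells arrested at G1/S by double thymidine block, proteins quantified by TMT10plex mass spectrometry in mild NP-40 versus SDS extracts, three biological replicates.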
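Wherever thermal stability score vs G1/S (z-score of summed log2 fold changes over temperatures) is given: synchronized HeLa Kyoto cells, proteins quantified by TMT10plex mass spectrometry, three biological replicates, mitosis taken 0.5 h after nocodazole release, G1/S directly after double thymidine block.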

“MPLNRTLSMSSLPGLEDWEDEFDLENAVLFEVAWEVANKVGGIYTVLQTKAKVTGDEWGDNYFLVGPYTEQGVRTQVELLEAPTPALKRTLDSMNSKGCKVYFGRWLIEGGPLVVLLDVGASAWALERWKGELWDTCNIGVPWYDREANDAVLFGFLTTWFLGEFLAQSEEKPHVVAHFHEWLAGVGLCLCRARRLPVATIFTTHATLLGRYLCAGAVDFYNNLENFNVDKEAGERQIYHRYCMERAAAHCAHVFTTVSQITAIEAQHLLKRKPDIVTPNGLNVKKFSAMHEFQNLHAQSKARIQEFVRGHFYGHLDFNLDKTLYFFIAGRYEFSNKGADVFLEALARLNYLLRVNGSEQTVVAFFIMPARTNNFNVETLKGQAVRKQLWDTANTVKEKFGRKLYESLLVGSLPDMNKMLDKEDFTMMKRAIFATQRQSFPPVCTHNMLDDSSDPILTTIRRIGLFNSSADRVKVIFHPEFLSSTSPLLPVDYEEFVRGCHLGVFPSYYEPWGYTPAECTVMGIPSISTNLSGFGCFMEEHIADPSAYGIYILDRRFRSLDDSCSQLTSFLYSFCQQSRRQRIIQRNRTERLSDLLDWKYLGRYYMSARHMALSKAFPEHFTYEPNEADAAQGYRYPRPASVPPSPSLSRHSSPHQSEDEEDPRNGPLEEDGERYDEDEEAAKDRRNIRAPEWPRRASCTSSTSGSKRNSVDTATSSSLSTPSEPLSPTSSLGEERN [GYS1]”: the figures for the thermal stability score in series [1] (setting [5]) and in series [1] (cell cycle stage: mitosis) were 2.32 and 2.69, respectively. Also, the melting temperature worked out at 54.5 °C in series [2] (cell cycle stage: G1/S) and 55.2 °C in series [2] (cell cycle stage: mitosis). Moreover, in series [3], the “solubility in G1/S (log2)” value was -0.205. In addition, in series [4], the “solubility change mitosis (log2)” value is -0.314.
For “MPLSRWLRSVGVFLLPAPYWAPRERWLGSLRRPSLVHGYPVLAWHSARCWCQAWTEEPRALCSSLRMNGDQNSDVYAQEKQDFVQHFSQIVRVLTEDEMGHPEIGDAIARLKEVLEYNAIGGKYNRGLTVVVAFRELVEPRKQDADSLQRAWTVGWCVELLQAFFLVADDIMDSSLTRRGQICWYQKPGVGLDAINDANLLEACIYRLLKLYCREQPYYLNLIELFLQSSYQTEIGQTLDLLTAPQGNVDLVRFTEKRYKSIVKYKTAFYSFYLPIAAAMYMAGIDGEKEHANAKKILLEMGEFFQIQDDYLDLFGDPSVTGKIGTDIQDNKCSWLVVQCLQRATPEQYQILKENYGQKEAEKVARVKALYEELDLPAVFLQYEEDSYSHIMALIEQYAAPLPPAVFLGLARKIYKRRK [FDPS]”, the thermal stability score in series [1] (setting [5]) turned out to be 2.88; in series [1] (cell cycle stage: mitosis), 3.37. Moreover, the melting temperature stood at 50.8 °C in series [2] (cell cycle stage: G1/S) and 51 °C in series [2] (cell cycle stage: mitosis). The “solubility in G1/S (log2)” value in series [3] was 0.151. In addition, the “solubility change mitosis (log2)” value in series [4] was -0.0646.
On to “MPNWGGGKKCGVCQKTVYFAEEVQCEGNSFHKSCFLCMVCKKNLDSTTVAVHGEEIYCKSCYGKKYGPKGYGYGQGAGTLSTDKGESLGIKHEEAPGHRPTTNPNASKFAQKIGGSERCPRCSQAVYAAEKVIGAGKSWHKACFRCAKCGKGLESTTLADKDGEIYCKGCYAKNFGPKGFGFGQGAGALVHSE [CSRP1]”, for which the results for the thermal stability score in series [1] (setting [5]) and in series [1] (cell cycle stage: mitosis) were -1.5 and -2.91, respectively. This sequence yielded a melting temperature in series [2] (cell cycle stage: G1/S) of 60.2 °C. Further, the “solubility in G1/S (log2)” value in series [3] was -0.0793. Also, the “solubility change mitosis (log2)” value in series [4] was -0.142.
For the sequence “MPPKKQAQAGGSKKAEQKKKEKIIEDKTFGLKNKKGAKQQKFIKAVTHQVKFGQQNPRQVAQSEAEKKLKKDDKKKELQELNELFKPVVAAQKISKGADPKSVVCAFFKQGQCTKGDKCKFSHDLTLERKCEKRSVYIDARDEELEKDTMDNWDEKKLEEVVNKKHGEAEKKKPKTQIVCKHFLEAIENNKYGWFWVCPGGGDICMYRHALPPGFVLKKDKKKEEKEDEISLEDLIERERSALGPNVTKITLESFLAWKKRKRQEKIDKLEQDMERRKADFKAGKALVISGREVFEFRPELVNDDDEEADDTRYTQGTGGDEVDDSVSVNDIDLSLYIPRDVDETGITVASLERFSTYTSDKDENKLSEASGGRAENGERSDLEEDNEREGTENGAIDAVPVDENLFTGEDLDELEEELNTLDLEE [ZC3H15]”, the thermal stability score in series [1] (setting [5]) was 0.581; in series [1] (cell cycle stage: mitosis), -2.59. The melting temperature in series [2] (cell cycle stage: G1/S) amounted to 54.1 °C; in series [2] (cell cycle stage: mitosis), 53.6 °C. Further, the “solubility in G1/S (log2)” value in series [3] was -0.131. In series [4], the “solubility change mitosis (log2)” value was -0.0422.
For “MPPRRSIVEVKVLDVQKRRVPNKHYVYIIRVTWSSGSTEAIYRRYSKFFDLQMQMLDKFPMEGGQKDPKQRIIPFLPGKILFRRSHIRDVAVKRLIPIDEYCKALIQLPPYISQCDEVLQFFETRPEDLNPPKEEHIGKKKSGGDQTSVDPMVLEQYVVVANYQKQESSEISLSVGQVVDIIEKNESGWWFVSTAEEQGWVPATCLEGQDGVQDEFSLQPEEEEKYTVIYPYTARDQDEMNLERGAVVEVIQKNLEGWWKIRYQGKEGWAPASYLKKNSGEPLPPKPGPGSPSHPGALDLDGVSRQQNAVGREKELLSSQRDGRFEGRPVPDGDAKQRSPKMRQRPPPRRDMTIPRGLNLPKPPIPPQVEEEYYTIAEFQTTIPDGISFQAGLKVEVIEKNLSGWWYIQIEDKEGWAPATFIDKYKKTSNASRPNFLAPLPHEVTQLRLGEAAALENNTGSEATGPSRPLPDAPHGVMDSGLPWSKDWKGSKDVLRKASSDMSASAGYEEISDPDMEEKPSLPPRKESIIKSEGELLERERERQRTEQLRGPTPKPPGVILPMMPAKHIPPARDSRRPEPKPDKSRLFQLKNDMGLECGHKVLAKEVKKPNLRPISKSKTDLPEEKPDATPQNPFLKSRPQVRPKPAPSPKTEPPQGEDQVDICNLRSKLRPAKSQDKSLLDGEGPQAVGGQDVAFSRSFLPGEGPGRAQDRTGKQDGLSPKEISCRAPPRPAKTTDPVSKSVPVPLQEAPQQRPVVPPRRPPPPKKTSSSSRPLPEVRGPQCEGHESRAAPTPGRALLVPPKAKPFLSNSLGGQDDTRGKGSLGPWGTGKIGENREKAAAASVPNADGLKDSLYVAVADFEGDKDTSSFQEGTVFEVREKNSSGWWFCQVLSGAPSWEGWIPSNYLRKKP [SH3PXD2B]”, the thermal stability score in series [1] (setting [5]) is -0.513; in series [1] (cell cycle stage: mitosis), 0.253. For the same sequence, the melting temperature in series [2] (cell cycle stage: G1/S) amounted to 48.9 °C; in series [2] (cell cycle stage: mitosis), 49.9 °C. In addition, in series [3], the “solubility in G1/S (log2)” value is -0.0158. In addition, in series [4], the “solubility change mitosis (log2)” value is -0.129.
Consider “MPSSPLRVAVVCSSNQNRSMEAHNILSKRGFSVRSFGTGTHVKLPGPAPDKPNVYDFKTTYDQMYNDLLRKDKELYTQNGILHMLDRNKRIKPRPERFQNCKDLFDLILTCEERVYDQVVEDLNSREQETCQPVHVVNVDIQDNHEEATLGAFLICELCQCIQHTEDMENEIDELLQEFEEKSGRTFLHTVCFY [SSU72]”, for which the thermal stability score in series [1] (setting [5]) was 0.263; in series [1] (cell cycle stage: mitosis), -0.182. Moreover, the melting temperature in series [2] (cell cycle stage: G1/S) came out at 48.1 °C; in series [2] (cell cycle stage: mitosis), 49.4 °C. Moreover, the “solubility in G1/S (log2)” value in series [3] is 0.4. Also, the “solubility change mitosis (log2)” value in series [4] was -0.0234.
